Assay results published in patent US20120141538A1 (UNIVERSITE PIERRE ET MARIE CURIE PARIS VI, published 2012).
Positions count from the first letter of the chain named.

B1: CX3CL1 (native human soluble chemokine) (ligand)
chain: QHHGVTKCNITCSKMTSKIPVALLIHYQQNQASCGKRAIILETRQHRLFCADPKEQWVKDAMQHLDRQAAALTRNG
notes: The tracer is iodinated CX3CL1 from Amersham; also called fractalkine; FKN
B2: F2 (CX3CL1 analogue with N-terminal sequence QPQGVS) (ligand)
chain: B1 chain with H2P, H3Q, T6S
notes: Produced by chemical synthesis
B3: F1 (CX3CL1 analogue, soluble chemokine domain with N-terminal sequence ILDNGVS) (ligand)
chain: ILDNGVSKCNITCSKMTSKIPVALLIHYQQNQASCGKRAIILETRQHRLFCADPKEQWVKDAMQHLDRQAAALTRNG
notes: also called F1 analogue; soluble F1
B4: CX3CL1-Ig (CX3CL1 chemokine domain fused to murine Fc) (Fc fusion)
chain: QHHGVTKCNITCSKMTSKIPVALLIHYQQNQASCGKRAIILETRQHRLFCADPKEQWVKDAMQHLDRQAAALTRNGEPRGPTIKPCPPCKCPAPNLEGGPSVFIFPPKIKDVLMISLSPIVTCVVVDVSEDDPDVQISWFVNNVEVHTAQTQTHREDYNSTLRVVSALPIQHQDWMSGKAFACAVNNKDLPAPIERTISKPKGSVRAPQVYVLPPPEEEMTKKQVTLTCMVTDFMPEDIYVEWTNNGKTELNYKNTEPVLDSDGSYFMYSKLRVEKKNWVERNSYSCSVVHEGLHNHHTTKSFSRTPGK
notes: domain: Fcγ2a fragment; also called FKN-Ig
B5: F2-Ig (F2 fused to a domain of an immunoglobulin) (Fc fusion)
chain: QPQGVSKCNITCSKMTSKIPVALLIHYQQNQASCGKRAIILETRQHRLFCADPKEQWVKDAMQHLDRQAAALTRNGAAAHPRGPTIKPCPPCKCPAPNLEGGPSVFIFPPKIKDVLMISLSPIVTCVVVDVSEDDPDVQISWFVNNVEVHTAQTQTHREDYDSTLRVVSALPIQHQDWMSGKAFACAVNNKDLPAPIGRTISKPKGSVRAPQVYVLPPPEEEMTKKQVTLTCMVTDFMPEDIYVEWTNNGKTELNYKNTEPVLDSDGSYFMYSKLRVEKKNWVERNSYSCSVVHEGLHNHHTTKSFSRPPGK
B6: CCL5-expressing phage (other, UniProt P13501 24-91, looked up, not shown: large carriers)
chain: SPYSSDTTPCCFAYIARPLPRAHIKEYFYTSGKCSNPAVVFVTRKNRQVCANPEKKWVREYINSLEMS
notes: Control phage
B7: phage-F1 (phage clone ILDNGVS) (other, not shown: large carriers)
chain: B3 chain
B8: CX3CL1-phage (human CX3CL1 chemokine domain displayed on phage) (other, not shown: large carriers)
chain: B1 chain
notes: also called phage-chemokine
B9: phage-displayed CX3CL1 mutant with N-terminal sequence ILDNGVA (other, not shown: large carriers)
chain: B3 chain with S7A
notes: Selected phage clone (antagonist selection); not tested singly
B10: phage-displayed CX3CL1 mutant with N-terminal sequence ILDLGLS (other, not shown: large carriers)
chain: B3 chain with N4L, V6L
notes: as for B9
B11: phage-displayed CX3CL1 mutant with N-terminal sequence QRDSVLA (other, not shown: large carriers)
chain: B3 chain with I1Q, L2R, N4S, G5V, V6L, S7A
notes: as for B9
B12: phage-displayed CX3CL1 mutant with N-terminal sequence WLSQGLA (other, not shown: large carriers)
chain: B3 chain with I1W, D3S, N4Q, V6L, S7A
notes: as for B9
B13: phage-displayed CX3CL1 mutant with N-terminal sequence TLAQGLP (other, not shown: large carriers)
chain: B3 chain with I1T, D3A, N4Q, V6L, S7P
notes: as for B9
B14: phage-displayed CX3CL1 mutant with N-terminal sequence QPLFAVA (other, not shown: large carriers)
chain: B3 chain with I1Q, L2P, D3L, N4F, G5A, S7A
notes: as for B9
B15: phage-displayed CX3CL1 mutant with N-terminal sequence SLDHGLS (other, not shown: large carriers)
chain: B3 chain with I1S, N4H, V6L
notes: as for B9
B16: phage-displayed CX3CL1 mutant with N-terminal sequence ILDGGVS (other, not shown: large carriers)
chain: B3 chain with N4G
notes: as for B9
B17: phage-displayed CX3CL1 mutant with N-terminal sequence TLPQGLA (other, not shown: large carriers)
chain: B3 chain with I1T, D3P, N4Q, V6L, S7A
notes: as for B9
B18: phage-displayed CX3CL1 mutant with N-terminal sequence SLIPVVP (other, not shown: large carriers)
chain: B3 chain with I1S, D3I, N4P, G5V, S7P
notes: as for B9
B19: phage-displayed CX3CL1 mutant with N-terminal sequence ILDLGLT (other, not shown: large carriers)
chain: B3 chain with N4L, V6L, S7T
notes: as for B9
B20: phage-displayed CX3CL1 mutant with N-terminal sequence FLQSDVA (other, not shown: large carriers)
chain: B3 chain with I1F, D3Q, N4S, G5D, S7A
notes: as for B9
B21: phage-displayed CX3CL1 mutant with N-terminal sequence ILGRDVA (other, not shown: large carriers)
chain: B3 chain with D3G, N4R, G5D, S7A
notes: as for B9
B22: phage-displayed CX3CL1 mutant with N-terminal sequence QLFALS (other, not shown: large carriers)
chain: B1 chain with H2L, H3F, G4A, V5L, T6S
notes: as for B9
B23: phage-displayed CX3CL1 mutant with N-terminal sequence QSLVLP (other, not shown: large carriers)
chain: B1 chain with H2S, H3L, G4V, V5L, T6P
notes: as for B9
B24: phage-displayed CX3CL1 mutant with N-terminal sequence VQSVLS (other, not shown: large carriers)
chain: B1 chain with Q1V, H2Q, H3S, G4V, V5L, T6S
notes: as for B9

target: T1, human CX3CR1 receptor (human, UniProt P49238 1-355); experiment: competitive radioligand binding, CX3CR1-expressing HEK cells, 125I-FKN tracer
T1 construct: Expressed on stably transfected HEK or CHO cells, or endogenous on human PBMC (CD8+ T cells, NK cells); also called HEK-CX3CR1 cells; CHO-CX3CR1 cells
T1 sequence: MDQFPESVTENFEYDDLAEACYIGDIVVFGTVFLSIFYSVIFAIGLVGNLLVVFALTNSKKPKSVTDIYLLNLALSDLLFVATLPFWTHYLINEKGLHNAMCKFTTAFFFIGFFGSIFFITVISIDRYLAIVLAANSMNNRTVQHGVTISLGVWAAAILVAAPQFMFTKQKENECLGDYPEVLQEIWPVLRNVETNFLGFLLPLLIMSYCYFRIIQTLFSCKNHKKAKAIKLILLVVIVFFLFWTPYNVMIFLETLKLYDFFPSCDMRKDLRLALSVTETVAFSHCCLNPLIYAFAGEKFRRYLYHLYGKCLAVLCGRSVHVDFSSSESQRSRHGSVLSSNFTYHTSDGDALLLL
Description: (§1) Assays were performed as previously described by Moatti et al. (2001, Blood 97, 1925-8). Competitive binding to HEK-CX3CR1 and CHO-CX3CR1 cells was performed with 50 pM [¹²⁵I]-CX3CL1 (Amersham General Electric, Saclay, France) plus variable amounts of unlabeled ligand. Each concentration was assayed in duplicate. After 2 h at 37° C., cells were washed and radioactivity in the cell pellet was quantified with a gamma counter (LKB Wallac, Saint Quentin en Yvelines, France).
(§2) Assays for determining the competitive radioligand binding of F2 and of F2-Ig to CX3CR1 were carried out as described in Example 1.8.

Row | Binder | IC50
1 | B1 | 0.58 nM
2 | B2 | 0.05 nM

target: T1, human CX3CR1 receptor; experiment: competitive radioligand binding, HEK-CX3CR1 cells, [125I]-CX3CL1 tracer
Description: as §1
CX3CL1 in a competition binding, with HEK-CX3CR1 cells and [¹²⁵I]-CX3CL1 as a tracer. The F1 analogue interacted with CX3CR1, although with a lower affinity than CX3CL1. […] A similar difference in affinity was apparent when F1 and CX3CL1 were tested on CHO-CX3CR1 cells, and when the affinity of CX3CL1-Ig was compared to that of F1-Ig.

Row | Binder | IC50 | Log IC50
3 | B3 | 1.9 nM | -8.73
4 | B1 | 0.16 nM | -9.79

target: T1, human CX3CR1 receptor; experiment: competitive radioligand binding, CX3CR1-expressing CHO cells, 125I-FKN tracer
Description: as §1, §2

Row | Binder | IC50
5 | B4 | 1.47 nM
6 | B5 | 0.39 nM

target: T1, human CX3CR1 receptor; experiment: flow cytometry of phage on cells

Row | Binder | binding result
7 | B6 | no binding

target: T2, CCR5 (on HEK-CCR5 cells) (UniProt P51681 1-352, limits assumed); experiment: flow cytometry of phage on cells
T2 construct: whole, on cells; also called CCR5-expressing cells
T2 sequence (P51681 whole entry): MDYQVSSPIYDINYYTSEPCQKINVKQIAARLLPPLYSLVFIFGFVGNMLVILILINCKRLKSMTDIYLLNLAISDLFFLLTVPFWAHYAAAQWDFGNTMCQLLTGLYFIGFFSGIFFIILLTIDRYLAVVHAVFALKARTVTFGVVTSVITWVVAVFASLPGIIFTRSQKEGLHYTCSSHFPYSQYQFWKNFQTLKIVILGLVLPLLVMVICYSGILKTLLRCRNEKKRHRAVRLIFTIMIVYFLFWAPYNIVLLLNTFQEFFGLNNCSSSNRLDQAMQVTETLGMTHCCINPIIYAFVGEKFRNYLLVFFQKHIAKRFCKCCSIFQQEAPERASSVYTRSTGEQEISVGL

Row | Binder | binding result
8 | B7 | no binding
9 | B8 | no binding

target: T1, human CX3CR1 receptor; experiment: phage display selection on HEK-CX3CR1 cells, elution with soluble CX3CL1
Description: Phage particles are represented as cylinders (encapsulated phage genome) with multiple heads (pIII-CX3CL1 mutant fusion). […] (3) Stringent washing was used to remove nonspecifically bound phage. (4) An excess of soluble CX3CL1 (sCX3CL1) was added to remove surface-associated phage. Eluted phages were allowed to infect E. coli, and stocks of selected phages were prepared to be used in a new round of selection (steps 1 to 4).
A phage library of CX3CL1 mutants (10¹⁰ CFU) was directly incubated with 5.10⁶ HEK-CX3CR1 or HEK-CCR5 cells growing in 25 cm² tissue culture flasks (Becton Dickinson, Le Pont de Claix, France) at 37° C. at 5% CO₂ in 5 ml of supplemented RPMI-1640 medium. After 1 h, cells were washed 10 times at room temperature with 10 ml of phosphate-buffered saline (PBS) and then scraped from the plate into 10 ml of PBS-0.5% BSA. Cells were then pelleted and incubated for 20 min on ice in elution buffer consisting of an excess of soluble CX3CL1 (10 μM in 100 μl PBS-BSA). Cells were centrifuged (1000×g for 5 min) and supernatant was mixed with log-phase E. coli TG1 for production and purification of stock phage to be used in further rounds of selection, as described by Hartley et al. (2003, J Virol 77, 6637-44).

Row | Binder | binding result
10 | B9 | binds
11 | B10 | binds
12 | B11 | binds
13 | B12 | binds
14 | B13 | binds
15 | B14 | binds
16 | B15 | binds
17 | B16 | binds
18 | B17 | binds
19 | B18 | binds
20 | B19 | binds
21 | B20 | binds
22 | B21 | binds
23 | B22 | binds
24 | B23 | binds
25 | B24 | binds
